Like-named read-outs stand apart in the source and are kept apart here.

Assay [1] deals with MPER peptide PDT-081 (HIV-1). In words: ELISA on MPER (654-683) peptide, antibody titrated. Background: In an ELISA, binding on a coated surface is turned into a signal by an enzyme label.
Assay [2] concerns the target MPER peptide PDT-081 (HIV-1). Nature of the assay: BLI (Octet RED96), Fab over biotinylated peptide on streptavidin sensors. (In BLI a coated tip is dipped into the sample, and binding shifts an interference pattern.)
For assay [3], the target named is MPER peptide PDT-081 (HIV-1). In words: BLI on PDT-081.
The target in assay [4] is MPER peptide PDT-081 (HIV-1).
In assay [5] the target is MPER peptide PDT-081 (HIV-1). In words: ELISA on PDT-081.

B1: PGZL1 (antibody, V domains shown)
VH: EVQLVQSGGEVKRPGSSVTVSCKATGGTFSTLAFNWVRQAPGQGPEWMGGIVPLFSIVNYGQKFQGRLTIRADKSTTTVFLDLSGLTSADTATYYCAREGEGWFGKPLRAFEFWGQGTVITVSS
VL: DVVMTQSPGTLSLSPGERATLSCRASQSVSGGALAWYQQKPGQAPRLLIYDTSSRPTGVPGRFSGSGSGTDFSLTISRLEPEDFAVYYCQQYGTSQSTFGQGTRLEIK
As for B1, in assay [1], the 50% effective concentration (EC50 (read off the curve)) (usually the concentration that produces a half-maximal response) was found to be 0.02 µg/mL.

B2: PGZL1 Fab (Fab, V domains shown)
VH: EVQLVQSGGEVKRPGSSVTVSCKATGGTFSTLAFNWVRQAPGQGPEWMGGIVPLFSIVNYGQKFQGRLTIRADKSTTTVFLDLSGLTSADTATYYCAREGEGWFGKPLRAFEFWGQGTVITVSS
VL: DVVMTQSPGTLSLSPGERATLSCRASQSVSGGALAWYQQKPGQAPRLLIYDTSSRPTGVPGRFSGSGSGTDFSLTISRLEPEDFAVYYCQQYGTSQSTFGQGTRLEIK
B2: the Kd (as a rule, the equilibrium constant for the complex coming apart) in assay [2] was 9.9 nM.

B3: H4K3_RS73PE Fab (Fab, V domains shown)
VH: KVQLVQSGAELKKPWSSVRVSCKASGGSFSSYAFNWVRQAPGQRLEWLGGIVPLVSSTNYAQRFRGRVTISADPETSTVYLEMTGLTSADTAVYFCAREGEGWFGRPLRAFEFWGQGTLVTVST
VL: EIVLTQSPGTFALSPGERATLSCRASQSVSGGALAWYQQKAGQAPRLLIYDTSGRATGVPGRFSGSGSETDFSLTISRLEPEDFAVYYCQQYGTSQSTFGQGTRLETR
As for B3, in assay [3], the Kd came to 12.8 nM; the off-rate (koff) (in general, a measure of how fast the partners let go of each other) came out at 0.00051 s⁻¹; the kon (usually a measure of how fast the partners come together) is 39000 M⁻¹ s⁻¹. In assay [4], the Kd is 12.8 nM.

B4: H4K3_RS73PE (antibody, V domains shown)
VH: KVQLVQSGAELKKPWSSVRVSCKASGGSFSSYAFNWVRQAPGQRLEWLGGIVPLVSSTNYAQRFRGRVTISADPETSTVYLEMTGLTSADTAVYFCAREGEGWFGRPLRAFEFWGQGTLVTVST
VL: EIVLTQSPGTFALSPGERATLSCRASQSVSGGALAWYQQKAGQAPRLLIYDTSGRATGVPGRFSGSGSETDFSLTISRLEPEDFAVYYCQQYGTSQSTFGQGTRLETR
On to B4, for which, in assay [5], the EC50 (in general, the concentration that produces a half-maximal response) was 0.09 µg/mL and the Fold Increase (ELISA EC50 over H4K3) stood at 2.3 fold.

B5: PGZL1.H4K3 Fab (Fab, V domains shown)
VH: KVQLVQSGAELKKPWSSVRVSCKASGGSFSSYAFNWVRQAPGQRLEWLGGIVPLVSSTNYAQRFRGRVTISADRSTSTVYLEMTGLTSADTAVYFCAREGEGWFGRPLRAFEFWGQGTLVTVST
VL: EIVLTQSPGTFALSPGERATLSCRASQSVSGGALAWYQQKAGQAPRLLIYGTSGRATGVPGRFSGSGSETDFSLTISRLEPEDFAVYYCQQYGTSQSTFGQGTRLETR
In assay [3], B5 returned a koff of 0.00051 s⁻¹ and a kon of 68000 M⁻¹ s⁻¹. Further, in assay [2], the Kd stood at 7.5 nM, the off rate faster than that of PGZL1 is 8% and the on rate faster than that of PGZL1 amounted to 24%.

B6: H4K3_SFS28EPE Fab (Fab, V domains shown)
VH: KVQLVQSGAELKKPWSSVRVSCKASGGEPESYAFNWVRQAPGQRLEWLGGIVPLVSSTNYAQRFRGRVTISADRSTSTVYLEMTGLTSADTAVYFCAREGEGWFGRPLRAFEFWGQGTLVTVST
VL: EIVLTQSPGTFALSPGERATLSCRASQSVSGGALAWYQQKAGQAPRLLIYDTSGRATGVPGRFSGSGSETDFSLTISRLEPEDFAVYYCQQYGTSQSTFGQGTRLETR
Turning to B6, in assay [3], the Kd came out at 15.1 nM, the off-rate (koff) came out at 0.00054 s⁻¹ and the kon came out at 36000 M⁻¹ s⁻¹. The same molecule returned a Kd in assay [4] of 15.1 nM.

B7: H4K3_SFS28EPE (antibody, V domains shown)
VH: KVQLVQSGAELKKPWSSVRVSCKASGGEPESYAFNWVRQAPGQRLEWLGGIVPLVSSTNYAQRFRGRVTISADRSTSTVYLEMTGLTSADTAVYFCAREGEGWFGRPLRAFEFWGQGTLVTVST
VL: EIVLTQSPGTFALSPGERATLSCRASQSVSGGALAWYQQKAGQAPRLLIYDTSGRATGVPGRFSGSGSETDFSLTISRLEPEDFAVYYCQQYGTSQSTFGQGTRLETR
For the molecule B7, in assay [5], the EC50 is 0.076 µg/mL and the Fold Increase (ELISA EC50 over H4K3) amounted to 2 fold.

B8: PGZL1.H4K3 (antibody, V domains shown)
VH: KVQLVQSGAELKKPWSSVRVSCKASGGSFSSYAFNWVRQAPGQRLEWLGGIVPLVSSTNYAQRFRGRVTISADRSTSTVYLEMTGLTSADTAVYFCAREGEGWFGRPLRAFEFWGQGTLVTVST
VL: EIVLTQSPGTFALSPGERATLSCRASQSVSGGALAWYQQKAGQAPRLLIYGTSGRATGVPGRFSGSGSETDFSLTISRLEPEDFAVYYCQQYGTSQSTFGQGTRLETR
With B8, the EC50 in assay [5] worked out at 0.039 µg/mL.

B9: H4K3_5M (antibody, V domains shown)
VH: KVQLVQSGAELKKPWSSVRVSCKASGGEPESYAFNWVRQAPGQRLEWLGGIVPLVSSTNYAQRFRGRVTISADPETSTVYLEMTGLTSADTAVYFCAREGEGWFGRPLRAFEFWGQGTLVTVST
VL: EIVLTQSPGTFALSPGERATLSCRASQSVSGGALAWYQQKAGQAPRLLIYDTSGRATGVPGRFSGSGSETDFSLTISRLEPEDFAVYYCQQYGTSQSTFGQGTRLETR
With B9, in assay [5], the EC50 came to 0.083 µg/mL and the Fold Increase (ELISA EC50 over H4K3) was 2.1 fold.

B10: H4K3_5M Fab (Fab, V domains shown)
VH: KVQLVQSGAELKKPWSSVRVSCKASGGEPESYAFNWVRQAPGQRLEWLGGIVPLVSSTNYAQRFRGRVTISADPETSTVYLEMTGLTSADTAVYFCAREGEGWFGRPLRAFEFWGQGTLVTVST
VL: EIVLTQSPGTFALSPGERATLSCRASQSVSGGALAWYQQKAGQAPRLLIYDTSGRATGVPGRFSGSGSETDFSLTISRLEPEDFAVYYCQQYGTSQSTFGQGTRLETR
Regarding B10, in assay [3], the Kd came out at 23.4 nM, the koff was 0.00067 s⁻¹ and the kon is 29000 M⁻¹ s⁻¹. Also, in assay [4], the Kd turned out to be 23.4 nM.

The record behind these values is US20240124560A1.
